According to paper doi:10.1101/2024.03.27.586411 (2024):
Where “and” joins values, the source holds several entries; their conditions need not be identical. Equal entries are not always repeated.

How the values were obtained:
[1] = molecular target: PDCoV S_(SD2018) ectodomain trimer (Porcine deltacoronavirus (PDCoV), isolate SD2018/300); assay: cryo-EM structure; 1.5 uM PDCoV S SD2018/300 with 4.5 uM PD41 Fab, 1 hour at 4 C; 3D classification into four classes, local refinement of the RBD:PD41 region
[2] = molecular target: human APN ectodomain, Fc fusion (human) (UniProt P15144); assay: BLI; RBD to hAPN-Fc, series from 5 uM two-fold down to 39 nM; apparent KD; Octet Red, 30 C, 10 x Kinetics Buffer; 1:1 binding model; who was immobilised is not told for this series
[3] = molecular target: T1, PDCoV_(IL121_2014) receptor-binding domain (Porcine deltacoronavirus (PDCoV), …); assay: BLI
T1 chain: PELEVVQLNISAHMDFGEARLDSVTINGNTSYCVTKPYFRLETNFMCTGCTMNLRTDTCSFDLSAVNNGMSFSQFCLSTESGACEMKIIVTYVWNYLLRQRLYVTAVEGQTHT

[4] = molecular target: T1, PDCoV_(IL121_2014) receptor-binding …; assay: BLI

Chain of human APN ectodomain, Fc fusion (human) (P15144 66-967): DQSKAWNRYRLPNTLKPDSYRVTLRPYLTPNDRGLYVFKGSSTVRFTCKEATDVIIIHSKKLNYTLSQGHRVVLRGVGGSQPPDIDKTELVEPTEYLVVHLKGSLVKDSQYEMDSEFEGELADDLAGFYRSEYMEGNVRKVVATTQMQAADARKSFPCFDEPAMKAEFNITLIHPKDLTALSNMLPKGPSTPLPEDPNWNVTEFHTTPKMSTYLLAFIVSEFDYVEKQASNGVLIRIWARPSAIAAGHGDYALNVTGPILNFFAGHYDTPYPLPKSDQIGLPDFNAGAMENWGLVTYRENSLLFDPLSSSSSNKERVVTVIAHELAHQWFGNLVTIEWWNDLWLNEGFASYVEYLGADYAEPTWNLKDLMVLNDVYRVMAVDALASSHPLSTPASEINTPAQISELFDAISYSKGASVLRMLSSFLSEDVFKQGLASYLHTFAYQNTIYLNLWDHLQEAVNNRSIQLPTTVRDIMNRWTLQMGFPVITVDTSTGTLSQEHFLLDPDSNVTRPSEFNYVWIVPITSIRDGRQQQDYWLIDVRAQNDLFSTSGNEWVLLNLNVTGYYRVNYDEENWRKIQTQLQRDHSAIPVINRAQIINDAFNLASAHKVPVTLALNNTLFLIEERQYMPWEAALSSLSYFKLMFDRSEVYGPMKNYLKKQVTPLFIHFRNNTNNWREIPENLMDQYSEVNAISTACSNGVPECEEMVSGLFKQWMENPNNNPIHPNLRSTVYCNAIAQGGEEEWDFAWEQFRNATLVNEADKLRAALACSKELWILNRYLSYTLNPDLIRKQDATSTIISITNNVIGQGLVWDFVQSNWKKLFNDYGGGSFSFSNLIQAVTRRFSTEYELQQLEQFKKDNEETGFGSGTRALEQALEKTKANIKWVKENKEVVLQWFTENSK

“PDCoV S_(SD2018) ectodomain trimer (natural protein)” gave a stoichiometry N [1] of 3.

“PDCoV SD2018/300 receptor-binding domain (domain or fragment)” was tested, and the fold greater affinity than RBD (IL121 2014) [2] was 5 fold.

B1: PD33 Fab fragment (Fab, V domains shown)
VH: EVQLVESGGGLVQPGGSLRLSCAASGFTFSHYTMNWVRQAPGRGLEWVSSITTSSNFIYYADSVKGRFTISRDNTKNSLYLQMNSLSAEDTAVYFCARGGWELSYFDFWGQGTLVTVSS
VL: DIVMTQSPLSLPVTLGQPASISCRSSQSLVYSDGNTFLNWFQQRPGQSPRRLIYKVSNRDSGVPDRFSGSGSGTDFTLRISRVEAEDVGFYYCMQGTHWPPTFGPGTKVEIK
In the case of B1, the koff [3] is reported as 0.000586 s⁻¹ and 0.000542 s⁻¹ and the Kd [4] is reported as 4.36 nM.

B2: PD41 Fab fragment (Fab, V domains shown)
VH: HSQLQESGPGLVKPSQTLSLTCTVSGGSISSAGYYWNWIRQHPGKGLEWIGYIYYSGNTYYNPSLKSRVTISVDTSKSQFSLKLNSVTAADTAVYYCARKIVNWFDPWGQGTLVTVSS
VL: QSALTQPASVSGSPGQSITISCTGTSSDVGGYNYVSWYQQHPGKAPKLMIYDVSERPSGVSNRFSGSKSGNTASLTISGLQAEDEADYFCCSYAGYTTYVVFGGGTQLTVL
For B2, the koff [3] was 0.00177 s⁻¹ and 0.002 s⁻¹ and the Kd [4] was 22.6 nM and 37.2 nM.
